Target: head domain of VN/04 HA (A/Vietnam/1203/2004 H5N1), monomeric (Influenza A virus A/Vietnam/1203/2004 …, strain)
Experiment: crystal structure

B1: H5.31 Fab (recombinant) (Fab, V domains shown)
VH: EVQLVQSGGGLVQPGGSLRLSCEASRFTSSSYWITWVRQAPGKGLEWVANIKQDGSEKYFVDSVKGRFTISRDNASNSLYLQMSSLRAEDTAVYYCARGFLERLLLGRQGAYYYGMDVWGQGTTVTVSS
VL: DIVMTQSPFSLSASVGDRVTMTCRASQSISSSLNWYQQKPGKAPKLLIYAASNLQSGVPSRFSGSGSGTDFTLTISSLQPEDFATYYCQQSYTMPPELTFGGGTKVEIK
binding result: binds
